Measured values as given in PMC10871540 (Science Advances, 2024).

Target: T1, UNC-40 ECD (C. elegans, UniProt G5EF96 23-1082)
T1 sequence (looked up): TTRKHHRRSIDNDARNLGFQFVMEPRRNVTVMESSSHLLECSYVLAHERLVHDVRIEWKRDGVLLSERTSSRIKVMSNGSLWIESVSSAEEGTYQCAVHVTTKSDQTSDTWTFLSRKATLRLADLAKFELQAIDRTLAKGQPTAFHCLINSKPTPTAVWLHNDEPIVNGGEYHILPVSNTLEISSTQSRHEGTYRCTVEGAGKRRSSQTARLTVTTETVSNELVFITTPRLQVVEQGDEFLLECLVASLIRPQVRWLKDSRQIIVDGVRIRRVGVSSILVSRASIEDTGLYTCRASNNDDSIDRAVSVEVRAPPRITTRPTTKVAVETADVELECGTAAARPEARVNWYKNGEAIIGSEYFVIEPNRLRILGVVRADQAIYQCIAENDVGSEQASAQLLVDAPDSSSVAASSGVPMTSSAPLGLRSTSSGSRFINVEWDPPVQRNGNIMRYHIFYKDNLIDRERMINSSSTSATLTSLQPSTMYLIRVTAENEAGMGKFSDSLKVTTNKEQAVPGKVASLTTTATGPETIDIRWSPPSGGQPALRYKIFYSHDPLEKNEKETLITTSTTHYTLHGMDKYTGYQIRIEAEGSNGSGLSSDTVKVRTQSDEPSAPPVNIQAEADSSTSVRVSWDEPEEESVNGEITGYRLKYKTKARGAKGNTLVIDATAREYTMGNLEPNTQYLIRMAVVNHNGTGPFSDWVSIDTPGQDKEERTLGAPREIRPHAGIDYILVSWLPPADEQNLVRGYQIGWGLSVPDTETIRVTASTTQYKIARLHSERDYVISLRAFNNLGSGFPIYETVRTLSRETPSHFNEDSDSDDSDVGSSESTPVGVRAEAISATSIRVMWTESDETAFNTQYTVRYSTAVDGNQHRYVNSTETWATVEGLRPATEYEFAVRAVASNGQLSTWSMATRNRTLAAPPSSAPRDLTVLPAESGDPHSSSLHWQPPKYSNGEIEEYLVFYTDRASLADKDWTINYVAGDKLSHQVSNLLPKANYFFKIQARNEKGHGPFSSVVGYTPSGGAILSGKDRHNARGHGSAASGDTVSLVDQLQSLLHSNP
Assay: SEC

B1: UNC-6ΔC (ligand)
chain: not shown
  binding result: binds
